This assay has as its target T1, FGFR4蛋白 (FGFR4 protein antigen, bought from Sino Biological / 义翘神州) (human, UniProt P22455 22-369, limits assumed).
T1 construct: also called FGFR4蛋白抗原; 成纤维细胞生长因子受体4
T1 sequence (looked up): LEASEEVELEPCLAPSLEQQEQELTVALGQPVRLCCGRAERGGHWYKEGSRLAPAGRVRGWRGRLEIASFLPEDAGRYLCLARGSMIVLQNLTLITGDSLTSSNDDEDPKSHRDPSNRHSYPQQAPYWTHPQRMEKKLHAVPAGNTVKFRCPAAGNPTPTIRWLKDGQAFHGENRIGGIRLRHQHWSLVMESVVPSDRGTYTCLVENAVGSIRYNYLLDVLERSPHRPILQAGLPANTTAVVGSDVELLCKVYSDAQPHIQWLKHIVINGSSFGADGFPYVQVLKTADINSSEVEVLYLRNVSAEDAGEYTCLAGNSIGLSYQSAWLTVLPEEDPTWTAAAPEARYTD
In words: BLI (OCTET K2), FGFR4 protein 10 ug/mL loaded on AHC sensors, 1B5 at 566.7-8.84 nM in solution.

B1: 抗成纤维细胞生长因子受体4单克隆抗体1B5 (antibody, V domains shown)
VH: EVMLVQSGPELKKPGETVKISCKASGYTFTNFGMNWVKQAPGKGLKWMGWINTYTGEPTYADDFKGRFVFSLETSASTAYLQINNLKNEDTATYLCVRSSSGYVFDYWGQGTIVTVG
VL: DIVMTQSPSSLAVSAGEKVTMSCKSSQSLLNSRTRKNYLAWYQQKPGQSPKLLIYWASTRESGVPDRFTGSGSGTDFTLTISSVQAEDLAVYYCKQSYNLLTFGEGTKLEIT
notes: Mouse hybridoma antibody (BALB/c), purified from ascites on Protein G and detected with anti-mouse IgG second antibodies; also called 1B5抗体; FGFR4单克隆抗体
As usually defined, the Kd is the equilibrium constant for the complex coming apart. Lower therefore signals higher affinity. Molecule B1 had a Kd of less than 1 pM.

The values above are taken from patent publication CN114349860A (SHENZHEN GUEN BIOTECHNOLOGY CO LTD, dated 2022).
